{"source": "patent US20240101692A1", "about": "(CEMM FORSCHUNGSZENTRUM F R MOLEKULARE MEDIZIN, published 2024)", "binders": {"B1": {"name": "Aprily 1 (antibody, V domains shown)", "VH": "QIQLVQSGPELKKPGETVRISCKASGYNFKTSGMSWVKQAPGKGLKWMGWIDTYAGVPTYTDDFKGRFVFSLETSATTAFLQINNLKNEDTGTYFCAREPGTDNWGQGTSLTVSS", "VL": "not shown", "notes": "Anti-human APRIL monoclonal antibody; Used biotinylated as detection antibody in some ELISAs; also called Aprily 1-biot"}, "B2": {"name": "Aprily 2 (antibody, V domains shown)", "VH": "B1 VH with N28T, T53A, V57I, V69A, E73D", "VL": "not shown", "notes": "Anti-human APRIL monoclonal antibody; Used coupled to beads for depletion and biotinylated for detection; also called Aprily 2-biot"}, "B3": {"name": "APRIL in human arteries (ligand)", "chain": "AVLTQKQKKQHSVLHLVPINATSKDDSDVTEVMWQPALRRGRGLQAQGYGVRIQDAGVYLLYSQVLFQDVTFTMGQVVSREGQGRQETLFRCIRSMPSHPDRAYNSCYSAGVFHLHQGDILSVIIPRARAKLNLSPHGTFLGFVKL", "notes": "Endogenous protein in tissue sections"}}, "key": {"[1]": {"molecular_target": "T1, Fc-hAPRIL C-terminal truncation ps4185 (aa 98-232) (human, UniProt O75888 115-249)", "T1 construct": "also called Fc-APRIL-ps4185", "T1 sequence": "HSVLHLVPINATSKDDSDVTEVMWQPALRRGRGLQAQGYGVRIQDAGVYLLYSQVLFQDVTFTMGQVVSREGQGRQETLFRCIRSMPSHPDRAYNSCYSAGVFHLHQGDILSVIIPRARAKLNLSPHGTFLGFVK", "test": "sandwich ELISA on supernatant of transfected cells, capture Aprily5, detection Aprily 1-biot"}, "[2]": {"molecular_target": "T2, Fc-hAPRIL C-terminal truncation ps4187 (aa 98-230) (human, UniProt O75888 115-247)", "T2 construct": "also called Fc-APRIL-ps4187", "T2 sequence": "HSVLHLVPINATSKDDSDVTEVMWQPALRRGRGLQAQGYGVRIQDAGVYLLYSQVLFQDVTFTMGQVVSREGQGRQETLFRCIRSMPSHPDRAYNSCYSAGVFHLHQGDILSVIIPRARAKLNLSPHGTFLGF", "test": "sandwich ELISA on supernatant of transfected cells, capture Aprily5, detection Aprily 1-biot"}, "[3]": {"molecular_target": "T3, Fc-hAPRIL C-terminal truncation ps4188 (aa 98-229) (human, UniProt O75888 115-246)", "T3 construct": "also called Fc-APRIL-ps4188", "T3 sequence": "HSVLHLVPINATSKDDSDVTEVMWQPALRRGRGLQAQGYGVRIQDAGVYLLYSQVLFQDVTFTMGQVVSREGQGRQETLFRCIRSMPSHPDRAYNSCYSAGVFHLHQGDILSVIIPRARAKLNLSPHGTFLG", "test": "sandwich ELISA on supernatant of transfected cells, capture Aprily5, detection Aprily 1-biot"}, "[4]": {"molecular_target": "T4, Fc-hAPRIL C-terminal truncation ps4186 (aa 98-231) (human, UniProt O75888 115-248)", "T4 construct": "also called Fc-APRIL-ps4186", "T4 sequence": "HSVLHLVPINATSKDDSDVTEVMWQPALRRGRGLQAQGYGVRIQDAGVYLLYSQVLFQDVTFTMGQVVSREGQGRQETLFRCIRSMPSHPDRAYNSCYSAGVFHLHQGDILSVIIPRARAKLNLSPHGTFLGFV", "test": "sandwich ELISA on supernatant of transfected cells, capture Aprily5, detection Aprily 1-biot"}, "[5]": {"molecular_target": "T5, Fc-hAPRIL WT (ps1307) (human, UniProt O75888 115-250)", "T5 construct": "APRIL residues are counted from Met18; also called Fc-APRIL-ps1307", "T5 sequence": "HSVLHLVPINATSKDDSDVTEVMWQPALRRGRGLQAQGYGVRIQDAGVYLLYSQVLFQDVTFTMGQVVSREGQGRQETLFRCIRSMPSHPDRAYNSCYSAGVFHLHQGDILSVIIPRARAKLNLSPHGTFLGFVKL", "test": "sandwich ELISA on supernatant of transfected cells, capture Aprily5, detection Aprily 1-biot"}, "[6]": {"molecular_target": "T6, Flag-mouse APRIL (mouse, UniProt Q9D777 96-241, limits assumed)", "T6 construct": "Denatured in the assay (SDS-PAGE and Western blot)", "T6 sequence (looked up)": "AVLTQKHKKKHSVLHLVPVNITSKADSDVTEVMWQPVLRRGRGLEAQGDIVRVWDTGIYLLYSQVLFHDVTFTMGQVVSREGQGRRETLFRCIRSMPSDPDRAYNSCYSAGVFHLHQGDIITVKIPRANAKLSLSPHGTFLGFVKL", "test": "Western blot of 50 ng Flag-mAPRIL after SDS-PAGE", "protocol": "50 ng of Flag-mouse APRIL “m” or Flag-human APRIL “h” were analyzed by SDS-PAGE on a 12% acrylamide gel, followed by Western blotting with the indicated anti-APRIL antibodies at 1 μg/ml, followed by HRP-coupled anti-mouse secondary reagent, or with a biotinylated anti-Flag antibody (M2-biot) followed by HRP-coupled streptavidin. The micration of molecular weight markers (in kDa) are indicated on the left-hand side."}, "[7]": {"molecular_target": "T1, Fc-hAPRIL C-terminal truncation ps4185 …", "test": "sandwich ELISA on supernatant of transfected cells, capture Aprily5, detection Aprily2-biot"}, "[8]": {"molecular_target": "T2, Fc-hAPRIL C-terminal truncation ps4187 …", "test": "sandwich ELISA on supernatant of transfected cells, capture Aprily5, detection Aprily2-biot"}, "[9]": {"molecular_target": "T3, Fc-hAPRIL C-terminal truncation ps4188 …", "test": "sandwich ELISA on supernatant of transfected cells, capture Aprily5, detection Aprily2-biot"}, "[10]": {"molecular_target": "T4, Fc-hAPRIL C-terminal truncation ps4186 …", "test": "sandwich ELISA on supernatant of transfected cells, capture Aprily5, detection Aprily2-biot"}, "[11]": {"molecular_target": "T5, Fc-hAPRIL WT (ps1307)", "test": "sandwich ELISA on supernatant of transfected cells, capture Aprily5, detection Aprily2-biot"}, "[12]": {"molecular_target": "heparan sulfate proteoglycan 2 (human, UniProt P98160 22-4391)", "test": "confocal microscopy of human coronary artery specimens stained with Aprily 2 and anti-HSPG2"}}, "note": "Numbering of substitutions follows the chain as printed."}
{"binder": "B1", "values": [{"measurement": "binding result", "setting": "[1]", "value": "binds"}, {"measurement": "binding result", "setting": "[2]", "value": "binds"}, {"measurement": "binding result", "setting": "[3]", "value": "binds"}, {"measurement": "binding result", "setting": "[4]", "value": "binds"}, {"measurement": "binding result", "setting": "[5]", "value": "binds"}, {"measurement": "binding result", "setting": "[6]", "value": "no binding (tested: 1 µg/ml)"}]}
{"binder": "B2", "values": [{"measurement": "binding result", "setting": "[7]", "value": "binds"}, {"measurement": "binding result", "setting": "[8]", "value": "binds"}, {"measurement": "binding result", "setting": "[9]", "value": "binds"}, {"measurement": "binding result", "setting": "[10]", "value": "binds"}, {"measurement": "binding result", "setting": "[11]", "value": "binds"}, {"measurement": "binding result", "setting": "[6]", "value": "no binding (tested: 1 µg/ml)"}]}
{"binder": "B3", "values": [{"measurement": "binding result", "setting": "[12]", "value": "binds"}]}
